First the molecules themselves.
B1: Protein amnionless (Homo sapiens), Q9BXJ7 (parent)
chain: MGVLGRVLLWLQLCALTQAVSKLWVPNTDFDVAANWSQNRTPCAGGAVEFPADKMVSVLVQEGHAVSDMLLPLDGELVLASGAGFGVSDVGSHLDCGAGEPAVFRDSDRFSWHDPHLWRSGDEAPGLFFVDAERVPCRHDDVFFPPSASFRVGLGPGASPVRVRSISALGRTFTRDEDLAVFLASRAGRLRFHGPGALSVGPEDCADPSGCVCGNAEAQPWICAALLQPLGGRCPQAACHSALRPQGQCCDLCGAVVLLTHGPAFDLERYRARILDTFLGLPQYHGLQVAVSKVPRSSRLREADTEIQVVLVENGPETGGAGRLARALLADVAENGEALGVLEATMRESGAHVWGSSAAGLAGGVAAAVLLALLVLLVAPPLLRRAGRLRWRRHEAAAPAGAPLGFRNPVFDVTASEELPLPRRLSLVPKAAADSTSHSYFVNPLFAGAEAEA

The first experiment covers variants of B1. As to conditions: with cubn_human CUBN.
In the case of C234F, the “effect of a mutation on the interaction” value is “disrupting interaction strength”.

In the case of M69K, the “effect of a mutation on the interaction” value is listed as “disrupting interaction strength”.

For the variant G254E, the “effect of a mutation on the interaction” value is on record as “disrupting interaction strength”.

On to L59P, for which the “effect of a mutation on the interaction” value is recorded as “disrupting interaction strength”.

Variants of B1 are the subject of another experiment. As to conditions: with cubn_human CUBN. The source holds these as a separate data set.
As to N35Q, the “effect of a mutation on the interaction” value is given as “disrupting interaction strength”.

In the case of S37A, the “effect of a mutation on the interaction” value was “with no effect”.

As to N35Q;T41I, the “effect of a mutation on the interaction” value is “disrupting interaction strength”.

Turning to S37A;T41I, the “effect of a mutation on the interaction” value is “with no effect”.

On to T41I, for which the “effect of a mutation on the interaction” value was “with no effect”.
